Measurements from PMC7160673, “A Degenerate Peptide Library Approach to Reveal Sequence Determinants of Methyllysine-Driven Protein Interactions” (Frontiers in Cell and Developmental Biology, 2020).
Where no end group is shown, it is not given here. [ ]: non-standard residue; d: D form. The star is where a group is joined. 5FAM = O=C1OC2(c3ccc(O)cc3Oc3cc(O)ccc32)c2ccc(C(=O)*)cc21; Lys(Me3) = C[N+](C)(C)CCCC[C@H](N)C(=O)O

T1: M Phase Phosphoprotein 8 chromodomain (UniProt Q99549 55-116)
T1 construct: M-phase phosphoprotein 8 (MPP8), chromodomain; also called MPP8 chromo; MPP8; source: E. coli BL21, purified (glutathione resin); not shown: GST, N-terminal, kept
T1 sequence: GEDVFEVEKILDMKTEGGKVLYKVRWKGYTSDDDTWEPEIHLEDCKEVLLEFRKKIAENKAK

T2: Chromodomain Y-like protein 2 chromodomain
T2 construct: Chromodomain Y-like protein 2 (CDYL2), chromodomain; also called CDYL2 chromo; source: E. coli BL21, purified (glutathione resin); not shown: GST, N-terminal, kept
T2 sequence (Q8N8U2 whole entry, species assumed, looked up): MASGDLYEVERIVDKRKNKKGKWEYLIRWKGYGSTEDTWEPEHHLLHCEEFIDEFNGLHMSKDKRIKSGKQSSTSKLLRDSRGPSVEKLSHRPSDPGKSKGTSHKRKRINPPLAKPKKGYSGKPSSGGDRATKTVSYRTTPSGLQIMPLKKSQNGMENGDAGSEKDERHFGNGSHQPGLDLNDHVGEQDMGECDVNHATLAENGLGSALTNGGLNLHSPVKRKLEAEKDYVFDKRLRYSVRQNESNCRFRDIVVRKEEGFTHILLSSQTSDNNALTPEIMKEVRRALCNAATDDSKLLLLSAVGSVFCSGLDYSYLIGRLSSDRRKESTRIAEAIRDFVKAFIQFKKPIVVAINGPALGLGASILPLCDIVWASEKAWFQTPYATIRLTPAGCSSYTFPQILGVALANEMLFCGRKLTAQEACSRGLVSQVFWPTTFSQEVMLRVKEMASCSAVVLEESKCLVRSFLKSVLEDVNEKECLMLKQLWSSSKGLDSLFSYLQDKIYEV


Legend:
[1] = target: T1, M Phase Phosphoprotein 8 chromodomain; experiment: fluorescence polarisation; protein serially diluted with 10 nM FAM peptide; 25 mM HEPES pH 7.5, 100 mM NaCl, 0.05% NP-40; anisotropy fitted by specific binding with Hill slope; conditions: both partners purified
[2] = target: T2, Chromodomain Y-like protein 2 …; experiment: as above; conditions: both partners purified

Row | Kd [1] [µM] | Kd [2] [µM] | Binder
1 | 6 | – | 5FAM-WSK[Lys(Me3)]RRR (also: flanking glycines, number not given here) [FAM-WSK(Kme3)RRR peptide]
2 | – | 0.1 ± 0.0066 | 5FAM-WAY[Lys(Me3)]TGK (also: flanking glycines, number not given here) [FAM-WAY(Kme3)TGK peptide]
